# Reference: the nanobody polyreactivity screen of Harvey et al. (2022)
# Assay: yeast display, Sf9 membrane polyspecificity reagent, FACS + sequencing; frameworks hold sequencing errors
# Summary of the method: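 Genes from sorted yeast were amplified by colony PCR, read by MiSeq 2 × 250 sequencing and filtered on CDR length. These cells carried a synthetic nanobody library in Saccharomyces cerevisiae BJ5465 and were sorted by FACS into low and high (top ~1%) gates on anti-HA and streptavidin fluorescence. Polyreactivity is labelled according to the gate of origin.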
row,Sequence,polyreactivity (PSR sort gate)
1,QVQLVESGGGLVQAGGSLRLSCAASGSTFDTYAMGWYRQAPGKERELVATITNSVGNTYYADSVKGRFTISRDNAKNTVYLQMNSLKPEDTAVYYCAAETVYILAPGYYDYDYWGQGTQVTVSS,low polyreactivity
2,QVQLVESGGGLVQAGGSLRLSCAASGSTFDTYAMGWYRQAPGKERELVAVITTGGSTYYADSVKGRFTISRDNAKNTVNLQMNSLKPEDTAVYYCNAGYSVSRRRKYGYWGQGTQVTVSS,high polyreactivity
3,QVQLVESGGGLVQAGGSLRLSCAASGSTFDVNAMGWYRPAPGKERELVAAISFSGGSTYYADSVKGRFTISRDNAKNTVYLQMNSLKPEDTAVYYCAAEEWRSYYEEYDYWGQGTQVTVSS,low polyreactivity
4,QVQLVESGGGLVQAGGSLRLSCAASGSTFDVNTMGWYRQAPGKERELVAAISSSGGDTYYADSVKGRFTISRDNAKNTVYLQMNSLKPDDTAVYYCAARLGFYTYGYTSWYTVYYWGQGTQVTVSS,low polyreactivity
5,QVQLVESGGGLVQAGGSLRLSCAASGSTFDVYAMGWYRQAPGKERELVAAIRSSGGSTFYADSVKGRFTISRDNAKNIVYLQMISLNPEDTAVYYCAARSFVVSGYNKYYEYGYWGQGTHVTVSS,low polyreactivity
6,QVQLVESGGGLVQAGGSLRLSCAASGSTFDVYAMGWYRQAPGKERELVAAISRSGGSTYYADSVKGRFTISRDNAKNTVYLQMNSLKPEDTAVYYCNARLARWGSYEYNYWGQGTQVTVSS,low polyreactivity
7,QVQLVESGGGLVQAGGSLRLSCAASGSTFDVYAMGWYRQAPGKERELVAGISSRGGRTYYADSVKGRFTISRDNAKNTVYLQMNSLKPEDTAVYYCAARYKGNPDRYGYWGQGTQVTVSS,high polyreactivity
8,QVQLVESGGGLVQAGGSLRLSCAASGSTFDVYAMGWYRQAPGKERELVASISITDGSTYYADSVKGRFTISRDNAKNTVYLPMNSLKPEDTAVYYCNAQYGGSYVEYDYWGQGTQVTVSA,low polyreactivity
9,QVQLVESGGGLVQAGGSLRLSCAASGSTFDVYTMGWYRQAPGKERELVATISGDDGSTYYADSEKGRFTISRDNAKNTVSLQMNSLKPEDTAVYYCAADYGGFPNYYSTGDYWGQGTQVTVSS,low polyreactivity
10,QVQLVESGGGLVQAGGSLRLSCAASGSTFDYNAMGWYRQAPGKERELVAAITTVGITYYADSVKGRFTISRDNAKNTVYLQMNSLKPEDTAVYYCAARCVRYGGRYDYWGQGTQVTVSS,high polyreactivity
11,QVQLVESGGGLVQAGGSLRLSCAASGSTFDYYAMGWYRQAPGKERELVATISWSGTDTYYADSVKGRFTISRDNAKNTVYLQMNSLKPEDTAVYYCAADTVYWRGWSGYYYWGQGTQVTVSS,low polyreactivity
12,QVQLVESGGGLVQAGGSLRLSCAASGSTFDYYAMGWYRQAPGKVRELGAAITTSGGSTYYADSVKGRFTISRDNAKNTVYLQINCLKPEDTAVYYCAAESYWYGTSPYYYLYEYDYWGQGTQVTVSS,high polyreactivity
13,QVQLVESGGGLVQAGGSLRLSCAASGSTFDYYDMGWYRPAPGKERELVAAISSGGDSTYYADSVKGRFTISRDNAKNTVYLQFNSLKPEDSAVYYCAAPDESYSVWRLDGLDYWGQGTQVTVSS,high polyreactivity
14,QVQLVESGGGLVQAGGSLRLSCAASGSTFDYYTMGWYRPAPGKERELVAAISSSGGSTYYADSVKGRFTISRDYAKNTVYLQMNSLKPEDTAVYYCAADPSPYGDEYDYWGQGTQVTVSS,low polyreactivity
15,QVQLVESGGGLVQAGGSLRLSCAASGSTFDYYVMGWYRQAPGKERELVASISSGGSTYYADSVKGRFTISRDNAKNTVYLQMNSLKPEDTAVYYCAARYYGRVGGYSIGYNYWGQGTQVTVSS,high polyreactivity
16,QVQLVESGGGLVQAGGSLRLSCAASGSTFEANAMGWNRPAPWKERELVAVITWTGGSTYYADSVKGRFTISRDNAKNTVYLQMNSLKPEDTAVYYCAADGVVPGRFFWPAHEYDYWGQGTQVTVSS,low polyreactivity
17,QVQLVESGGGLVQAGGSLRLSCAASGSTFEANAMGWYRQAPGNERELVAVITWTGGSTYYADSVKGRFTISRDNAKNTVYLQMNSLKPEDTAVYYCAADGVVPGRFFWPAHEYDYWGQGTQVTVSS,low polyreactivity
18,QVQLVESGGGLVQAGGSLRLSCAASGSTFEDNTMGWYRQAPGKEREFVADISNIGGDTTYADSVKGRFTISRDNAKNTVYLQMNSLKPEDTAVYYCAAVKGHSQVLSYGYWGQGTQVTVSS,low polyreactivity
19,QVQLVESGGGLVQAGGSLRLSCAASGSTFEHYAMGWYRQAPGKERELVAAISYTGGNTYYADSVKGRFTISRDNAKNTVYLQMNSLKPEDTAVYYCAAAPLYYHRRGYYYWGQGTQVTVSS,high polyreactivity
20,QVQLVESGGGLVQAGGSLRLSCAASGSTFEHYTMGWYRQAPGKERELVAAINGRGGSTYYADSVKGRFTISRDNAKNTVYLQMNSLKPEDTAVYYCAAVYGFRDYDYWGQGTQVTVSS,high polyreactivity
21,QVQLVESGGGLVQAGGSLRLSCAASGSTFELNAMGWYRQAPGKERELVAVITISGGNTYYADSVKGRFTISRDNAKNTVDLPMNSLKPDDTAVYYCAARPITTSITRYGFWGQGTQVTVSS,high polyreactivity
22,QVQLVESGGGLVQAGGSLRLSCAASGSTFENYVMGWDRQAPGKERELVAAISRGGGSTHYADSVKGRFTISRDNANNTVYLQMNSLKPEDTAVYYCAARYQPYVGSRSISTGIYYYWGQGTQVTVSS,low polyreactivity
